Test results reported in publication PMC5647336.

Target: Hp-chimMotB (soluble chimeric variant of Helicobacter pylori MotB with the transmembrane helix replaced by a GCN4-derived leucine zipper) (S. cerevisiae | Helicobacter pylori) (UniProt P03069)
Experiment: SAXS; Hp-chimMotB at 0.05, 0.11 and 0.25 mg/mL in 100 mM sodium acetate pH 4.6, 200 mM NaCl, room temperature; MW from I(0) (Guinier, P(r)) and Porod volume compared with the theoretical dimer mass

“Hp-chimMotB (soluble chimeric variant of Helicobacter pylori MotB with the transmembrane helix replaced by a GCN4-derived leucine zipper) (from UniProt P03069 249-279; P56427 41-257)” showed a stoichiometry N of 2.
